First the molecules themselves.
B1: murine GPR182 (mGPR182), expressed from mGPR182 T2A GFP in 300.19 pre-B cells (receptor, mouse, UniProt P43142 1-398, looked up)
chain: MSVIPSPRPVSTLEPDNDFRDIHNWTELLHLFNQTFTDCHIEFNENTKHVVLFVFYLAIFVVGLVENVLVICVNCRRSGRVGMLNLYILNMAIADLGIILSLPVWMLEVMLEYTWLWGSFSCRFIHYFYLVNMYSSIFFLTCLSIDRYVTLTNTSPSWQRHQHRIRRAVCAGVWVLSAIIPLPEVVHIQLLDGSEPMCLFLAPFETYSAWALAVALSATILGFLLPFLLIAVFNILTACRLRRQRQTESRRHCLLMWAYIVVFAICWLPYQVTMLLLTLHGTHIFLHCHLVNLLYFFYEIIDCFSMLHCVANPILYNFLSPSFRGRLLSLVVRYLPKEQARAAGGRASSSSSTQHSIIITKEGSLPAAADLHTHPIRNVQASSPPPNTSPTLCNSVAS
notes: GPR182, mouse; Expressed fused via a self-cleaving T2A peptide to GFP (backbone pME-Cas9-T2A-GFP, Addgene 63155); receptor and GFP are split post-translationally; also called ACKR5 (proposed); source: 300.19 mouse pre-B cells, stably transfected, on cells
B2: hCCL19, unlabeled (ligand, human, UniProt Q99731 22-98, looked up)
chain: GTNDAEDCCLSVTQKPIPGYIVRNFHYLLIKDGCRVPAVVFTTLRGRQLCAPPDQPWVERIIQRLQRTSAKMKRRSS
notes: CCL19, human
B3: mCCL19, unlabeled (ligand, mouse, UniProt O70460 26-108, looked up)
chain: GANDAEDCCLSVTQRPIPGNIVKAFRYLLNEDGCRVPAVVFTTLRGYQLCAPPDQPWVDRIIRRLKKSSAKNKGNSTRRSPVS
notes: CCL19, mouse
B4: mCCL20, unlabeled (ligand, mouse, UniProt O89093 28-97, looked up)
chain: ASNYDCCLSYIQTPLPSRAIVGFTRQMADEACDINAIIFHTKKRKSVCADPKQNWVKRAVNLLSLRVKKM
notes: CCL20, mouse
B5: mCCL28, fluorescently labelled (ligand, mouse, UniProt Q9JIL2 17-130, looked up)
chain: FQTSEAILPMASSCCTEVSHHVSGRLLERVSSCSIQRADGDCDLAAVILHVKRRRICISPHNRTLKQWMRASEVKKNGRENVCSGKKQPSRKDRKGHTTRKHRTRGTHRHEASR
modifications: fluorescent label (AF647 or Dy649), site not stated
notes: CCL28, mouse; also called CCL28-AF647; mCCL28-AF647
B6: mCCL28, unlabeled (ligand, mouse, UniProt Q9JIL2 17-130, looked up)
chain: B5 chain
notes: CCL28, mouse
B7: hCXCL13, unlabeled (ligand, human, UniProt O43927 23-109, looked up)
chain: VLEVYYTSLRCRCVQESSVFIPRRFIDRIQILPRGNGCPRKEIIVWKKNKSIVCVDPQAEWIQRMMEVLRKRSSSTLPVPVFKRKIP
notes: CXCL13, human

Settings in all cases: one partner purified
One assay has as its target T1, hCXCL12, unlabeled (human, UniProt P48061 22-93).
T1 construct: CXCL12, human; also called X12
Description: flow cytometry on cells; competition binding at 4°C: 300.19 cells expressing mGPR182 or hGPR182 with 3 nM fluorescent chemokine and increasing concentrations of its unlabeled counterpart, 45 min.

The target of assay [1] is T2, human GPR182 (hGPR182), expressed from hGPR182 T2A GFP in 300.19 pre-B cells (human, UniProt O15218 1-404).
T2 construct: GPR182, human; Expressed fused via a self-cleaving T2A peptide to GFP (backbone pME-Cas9-T2A-GFP, Addgene 63155); split post-translationally; also called ACKR5 (proposed); source: 300.19 mouse pre-B cells, stably transfected, on cells
Described as above.

The target in assay [2] is T2, human GPR182 (hGPR182), expressed from …. Description: flow cytometry on cells; competition scavenging at 37°C: 300.19 cells expressing mGPR182 or hGPR182 with 3 nM fluorescent chemokine and increasing concentrations of its unlabeled counterpart, 45 min.
Assay [3] concerns the target B1. Nature of the assay: flow cytometry on cells; competition binding at 4°C: 300.19 cells expressing mGPR182 or hGPR182 with 3 nM fluorescent chemokine and increasing concentrations of its unlabeled counterpart, 45 min. In general terms: In flow cytometry, cells or beads pass a laser one at a time.
Assay [4] concerns the target B1. Description: flow cytometry on cells; competition scavenging at 37°C: 300.19 cells expressing mGPR182 or hGPR182 with 3 nM fluorescent chemokine and increasing concentrations of its unlabeled counterpart, 45 min.
Assay [5] concerns the target B1. Nature of the assay: flow cytometry on cells; direct binding: 300.19 cells expressing GPR182 T2A GFP with increasing concentrations of fluorescently labelled chemokine, 45 min; temperature not stated for this experiment.

This note sets out measurements from article PMC10405735 (Frontiers in Immunology, 2023).

A word on the Kd: it is the constant that tells how readily two partners part at equilibrium. As to B1, the Kd in the assay with hCXCL12, unlabeled is 0.12 µM.

Turning to B2, in assay [1], the Kd amounted to 0.055 µM. Besides, the “Kd (competition scavenging)” value in assay [2] is 0.075 µM.

In assay [3], B3 returned a Kd of 0.18 µM. Further, in assay [4], the “Kd (competition scavenging)” value stood at 0.25 µM.

On to B4, for which the equilibrium dissociation constant (Kd) in assay [3] was 0.12 µM.

As for B5, the Kd in assay [5] is ~0.0085 µM.

Consider B6, for which the results for the Kd in assay [3] and in assay [1] were 0.01 µM and 0.028 µM, respectively. For the same molecule, the figures for the “Kd (competition scavenging)” value in assay [4] and in assay [2] were 0.014 µM and 0.052 µM, respectively.

In the case of B7, the Kd in assay [3] and in assay [1] was 0.02 µM in each case. Besides, the “Kd (competition scavenging)” value in assay [4] was determined as 0.013 µM; in assay [2], 0.009 µM.
